Test results taken from patent US20240026007A1 (Boehringer Ingelheim, published 2024).

B1: ABX0020 (antibody, human IgG1, kappa)
heavy: not shown
light: DIQMTQSPSSLSASVGDRVTITCRASQSISSYLNWYQQKPGKAPKLLIYAASSLQSGVPSRFSGSGSGTDFTLTISSLQPEDFATYYCQQSATYWDMFGQGTKVEIKRTVAAPSVFIFPPSDEQLKSGTASVVCLLNNFYPREAKVQWKVDNALQSGNSQESVTEQDSKDSTYSLSSTLTLSKADYEKHKVYACEVTHQGLSSPVTKSFNRGEC
notes: also called R2-A12 hIgG1
B2: ABX0040 (bispecific antibody)
chain 1: not shown
chain 2: B1 light
chain 3: EVQLVESGGGLVQPKGSLKLSCAASGFTFNTYAMNWVRQAPGKGLEWVARIRSKYNNYATYYADSVKDRFTISRDDSQSILYLQMNNLKTEDTAMYYCVRHGNFGNSYVSWFAYWGQGTLVTVSS
chain 4: QAVVTQESALTTSPGETVTLTCRSSTGAVTTSNYANWVQEKPDHLFTGLIGGTNKRAPGVPARFSGSLIGDKAALTITGAQTEDEAIYFCALWYSNLWVFGGGTKLTVL

What was measured:
[1] = biological target: V-0021 (…)/HLA-E 01:03 monomer complex (human); experiment: ELISA; monomer complex 0.25 µg/ml on neutravidin plate, antibody 1 µg/ml
[2] = biological target: T1, HLA-G signal peptide/HLA-E*0103 complex (ABI-V-0025; …) (human); experiment: label-free (ResoSens, Resonant Sensors); ABX0020 captured by anti-IgG-Fc, V-0025 HLA-E 01:03 monomer in solution (monovalent)
T1 construct: also called 0025-E 01:03 monomer complex; V-0025 HLA-E 01:03 monomer complex
Description: (§1) The method for determining the affinity was as follows. Thermofisher Capture Select™ Biotin anti-IgG-Fc (Hu) (diluted PBS buffer) was immobilized on neutravidin coated Bionetic label-free microarray plate at 5 ug/ml until binding reached equilibrium. Plate subsequently was washed 3× with 0.1% BSA, 0.1% Tween20, PBS dilution/wash buffer. […] Plate was subsequently washed in dilution/wash buffer 3×. V-0025 HLA-E 01:03 monomer complex (serial dilutions starting at 5 ug/ml in dilution/wash buffer) was added to wells and allowed to incubate for 20 minutes to determine the binding association and then immediately followed by dissociation (dilution/wash buffer) for approximately 25 minutes. Binding affinity calculated using Tracedrawer kinetic analysis software.

[3] = biological target: T1, HLA-G signal peptide/HLA-E*0103 complex …; experiment: label-free (ResoSens), against the Octet value of R4
Description: as §1

[4] = biological target: 0002-A2 (…)/HLA-A2 02:01 monomer complex (human); experiment: ELISA; monomer complex on neutravidin plate
[5] = biological target: LL-002 (…)/HLA-E 01:03 monomer complex (human); experiment: ELISA; monomer complex on neutravidin plate
[6] = biological target: T2, V-0025 (…)/HLA-A2 02:01 monomer complex (human); experiment: ELISA; monomer complex on neutravidin plate
T2 construct: also called V-0025 on HLA-A2*02:01

[7] = biological target: V-0013 (…)/HLA-E 01:03 monomer complex (human); experiment: ELISA; monomer complex on neutravidin plate
[8] = biological target: P-0550 (…)/HLA-E monomer complex (human); experiment: ELISA; monomer complex on neutravidin plate
[9] = biological target: 0003-A2 (…)/HLA-A2 02:01 monomer complex (human); experiment: ELISA; monomer complex on neutravidin plate
[10] = biological target: LL-001 (…)/HLA-E 01:03 monomer complex (human); experiment: ELISA; monomer complex on neutravidin plate
[11] = biological target: T3, V-0018 (…)/HLA-A2 02:01 monomer complex (human); experiment: ELISA; monomer complex on neutravidin plate
T3 construct: also called ABI-V-0018; negative control (V-0018)

[12] = biological target: V-0038 (…)/HLA-E 01:03 monomer complex (human); experiment: ELISA; monomer complex on neutravidin plate
[13] = biological target: T1, HLA-G signal peptide/HLA-E*0103 complex …; experiment: label-free (ResoSens); V-0025 HLA-E 01:03 monomer on neutravidin plate, ABX0040 in solution

Binder | binding result [1] | Kd [2] | fold improvement of KD over the R4 clone [3] | binding result [4] | binding result [5] | binding result [6] | binding result [7] | binding result [8] | binding result [9] | binding result [10] | binding result [11] | binding result [12] | Kd [13]
B1 | binds | 1.87 nM | > 200 fold | no binding (tested: antibody 1 µg/ml, antigen 0.25 µg/ml) | no binding (tested: antibody 1 µg/ml, antigen 0.25 µg/ml) | no binding (tested: antibody 1 µg/ml, antigen 0.25 µg/ml) | no binding (tested: antibody 1 µg/ml, antigen 0.25 µg/ml) | no binding (tested: antibody 1 µg/ml, antigen 0.25 µg/ml) | no binding (tested: antibody 1 µg/ml, antigen 0.25 µg/ml) | no binding (tested: antibody 1 µg/ml, antigen 0.25 µg/ml) | no binding (tested: antibody 1 µg/ml, antigen 0.25 µg/ml) | no binding (tested: antibody 1 µg/ml, antigen 0.25 µg/ml) | –
B2 | – | – | – | – | – | – | – | – | – | – | – | – | 1.57 nM
